Results as given in patent US20150175707.

Assay: HP-SEC as in Example 20; Fc:Fc self-oligomerization

Substance | % multimeric (HP-SEC) | fraction oligomer (HP-SEC)
IgG4-005-RGY | IgG4-005-RGY (84.4% multimeric) | –
IgG1-2F8-RGY (EGFR antibody 2F8 with E345R/E430G/S440Y) | – | IgG1-2F8-RGY (74.5%)
IgG2-005-RGY (IgG2-005-E345R/E430G/S440Y) | IgG2-005-RGY (46.1% multimeric) | –
IgG3-005-RGY | IgG3-005-RGY (37.8% multimeric) | –
IgG1-7D8-RGY (CD20 antibody 7D8 with E345R/E430G/S440Y) | – | IgG1-7D8-RGY (67.2%)
